From patent US20230258640

Target: T1, TCPP-labelled peptide cleavage sequence for MMP-1 (GAGVPMS-MRGGAG) tethered to carboxygraphene-polyethylenimine
T1 chain: GAGVPMSMRGGAG

B1: Matrix-Metalloproteinase-1 (protein)
chain: FVLTEGNPRWEQTHLTYRIENYTPDLPRADVDHAIEKAFQLWSNVTPLTFTKVSEGQADIMISFVRGDHRDNSPFDGPGGNLAHAFQPGPGIGGDAHFDEDERWTNNFREYNLHRVAAHELGHSLGLSHSTDIGALMYPSYTFSGDVQLAQDDIDGIQAIYGRSQNPVQPIGPQTPKACDSKLTFDAITTIRGEVMFFKDRFYMRTNPFYPEVELNFISVFWPQLPNGLEAAYEFADRDEVRFFKGNKYWAVQGQNVLHGYPKDIYSSFGFPRTVKHIDAALSEENTGKTYFFVANKYWRYDEYKRSMDPGYPKMIAHDFPGIGHKVDAVFMKDGFFYFFHGTRQYKFDPKTKRILTLQKANSWFNCRKN
  estimated limit of detection (LOD): femtomolar protease activities can be detected
  fluorescence signal of released TCPP after 60 min incubation at 37 C: the intensity of the detected signal is proportional to concentration of enzyme
